These results are taken from US20040235002A1, “Multiplex screening assays” (Sangamo BioSciences, Inc., priority 2002, published 2004).

One data set deals with ERα and ERβ. Particulars: Barkham et al. (1998) Molecular Pharmacology, 54:105-112; cited from earlier work.
The test system of data set [1] is ZFP757-ERalpha LBD (synthetic/human). As to the kind of experiment: cell_activity. Conditions: AnxA8 mRNA, 100 nM 17beta-estradiol vs untreated, HEK293.
In data set [2] the test system is ZFP734-FXR LBD (synthetic/human). As to the kind of experiment: cell_activity. Conditions: Kip2 mRNA, 100 nM CDCA vs untreated, HEK293.
Data set [3] has as its system ZFP1727-TRbeta LBD (synthetic/human). As to the kind of experiment: cell_activity. Conditions: GRP mRNA, 100 nM T3, HEK293.

Turning to `C[C@]12CC[C@@H]3c4ccc(O)cc4CC[C@H]3[C@@H]1CC[C@H]2O` [17alpha-estradiol], the “activation of ERα and ERβ as known from the literature” value in the data set with ERα and ERβ is on record as “preferentially activates ERα”. In turn, “CGGGCGGCTG (double strand) [anxA8 site (ZFP757)]” returned an activity in data set [1] of 12 fold. “GGGGCTGGGT (double strand) [kip2 site (ZFP734)]” came in with an activity in data set [2] of 3.5 fold. The compound “GGTGGGGAGG (double strand) [GRP site (ZFP1727)]” showed an activity in data set [3] of 14 fold.
